The values below come from the supplement of paper PMC9170038.

The subject of this data set is MS2 coat protein. Briefly: apparent KD of MS2 coat protein; designed switch direction (-1 OFF switch, 1 ON switch): 1; higher = weaker reporter binding. The gist of the method:
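Stalled E. coli RNA polymerase transcribed designed RNA switches on Illumina chips, which were then titrated with SNAP-549-labelled MS2 coat protein, doubling from 0.7 or 1.5 nM to 3 µM. Steps lasted from 0.8–1.5 h at the lowest concentration to 10–20 min at the highest. The apparent KD is each design's median over clusters of curve-fitted normalised fluorescence.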

[1] abbreviates: input ligand: microRNA oligo, concentration not stated.
The mark [2] stands for this setting: Eterna round: R95, input ligand: FMN 200 uM.
[3] abbreviates: Eterna round: R95, input ligand: microRNA oligo, concentration not stated.
The mark [4] stands for this setting: Eterna round: R95, input ligand: none.

In the case of “AGAUCAUGACGAGGAUAUGGUACAUGAGGAUCACCCAUGUAUGUACCACGACGCGUACGUCGAAUCCAGAAGGCGUCAUGAUCA [Mat - Same State NG 2 - JL mod - D18] (Eterna round: R96, puzzle: Same State NG 2)”, the “apparent KD of MS2 coat protein” value by setting is: (input ligand: FMN 200 uM) 21.6 nM; under setting [1], 92.8 nM; (input ligand: none) 150 nM.
Turning to “AGCGAAAUAAGCAAGGAUAUGUAAUUUGGCACAUGAGGAUCACCCAUGUCAAUCCAUUUUUUUGAACAGAAGGUGCAUUUUUUUU [ak second] (puzzle: Same State 2)”, the “apparent KD of MS2 coat protein” value reads like this: under setting [2], 48.6 nM; under setting [3], 53.5 nM; under setting [4], 45.4 nM.
Turning to “AGCGAACAGUCCUCAAAGGCAACAUGAGGAUCACCCAUGUCAUAGGAUAUGCUAAAAGCUCAGUAGCAGAAGGAUGGAGGACUG [Edatusbe] (Eterna round: R96, puzzle: Same State NG 3)”, the “apparent KD of MS2 coat protein” value (input ligand: FMN 200 uM) was found to be 19.5 nM, the “apparent KD of MS2 coat protein” value under setting [1] is 28.1 nM and the “apparent KD of MS2 coat protein” value (input ligand: none) worked out at 23.5 nM.
On the same counts, the results for “AGCUAAUACGAAGGAUAUACUGACAUGAGGAUCACCCAUGUCUACAUGAUUUAUUGUGAUCACAUGUAGAAGGUCGUACUAACA [SameState NG2 #23] (Eterna round: R96, puzzle: Same State NG 2)” are 26.8 nM, 62.3 nM and 79.8 nM.
In the case of “AGCUAGUACCGAGGAUAUACAUACAUGAGGAUCACCCAUGUAUACAUGAACAAUUGAGACUACAUGUAGAAGGCGGUACUAGCA [JL SSNG2 1.19] (Eterna round: R96, puzzle: Same State NG 2)”, the “apparent KD of MS2 coat protein” value under setting [1] was determined as 37.4 nM.
For the sequence “AGCUAUUACGAAGGAUAUUGUGACAUGAGGAUCACCCAUGUUUACAUGAUUAAUUGUGAUCACGUCGAGAAGGUUGUACUAACA [SameState NG2 #32] (Eterna round: R96, puzzle: Same State NG 2)”, the “apparent KD of MS2 coat protein” value is, setting by setting: (input ligand: FMN 200 uM) 24.3 nM; under setting [1], 27.3 nM; (input ligand: none) 30.2 nM.
For “AGCUUCAAACUUUGCUCGUCGCGCCAGCGACAUGAGGAUCACCCAUGUGGGCGCAACCUCGUUAGCCCGAGGGCUCG [Labire] (puzzle: Sensor for hsa-mir-208a)”, the “apparent KD of MS2 coat protein” value reads like this: under setting [2], 27.1 nM; under setting [3], 14 nM; under setting [4], 29 nM.
Regarding “AGGAAGGAGACUGAGGAUAUCGUUGAAAAGACAUGAGGAUCACCCAUGUGUAUAGGAUUGGAGAACGAGAAGGCAGAGGAGUGGA [JR_SS2_Sub044] (puzzle: Same State 2)”, the “apparent KD of MS2 coat protein” value is, setting by setting: under setting [2], 29.2 nM; under setting [3], 33.3 nM; under setting [4], 37.5 nM.
For “AGGAAGGAGACUGAGGAUAUCGUUGAAAGGACAUGAGGAUCACCCAUGUGUAUAGGAUUGGAGAACGAGAAGGCAGAGGAGUGGA [JR_SS2_Sub045] (puzzle: Same State 2)”, the “apparent KD of MS2 coat protein” value is 36.4 nM under setting [2], 46.6 nM under setting [3] and 71.2 nM under setting [4].
With “AGGCUCAGACGAGGAUAUAUGCGAUCACAUGAGGAUCACCCAUGUCUCGAGCUUCGGCUCGAGGCAUAGAAGGUGUCUGAGCCA [SSNG2/4-C1] (Eterna round: R96, puzzle: Same State NG 2)”, the “apparent KD of MS2 coat protein” value stood at 31.4 nM (input ligand: FMN 200 uM), 111 nM under setting [1] and 126 nM (input ligand: none).
On the same counts, the results for “AGGCUCAGACGAGGAUAUGAUCAUGGCGCUUCGGCGCAUACAUGAGGAUCACCCAUGUAAAGUGAUCAGAAGGCGUCUGAGCCA [SSNG2/7-A1] (Eterna round: R96, puzzle: Same State NG 2)” are 12.3 nM, 14.5 nM and 14.2 nM.
“AGUCCACCCUGAGGUGGACAAAAGCAUGUACAUGAGGAUCACCCAUGUCAUGUACAAGCUUUUUGCUCGUCUUAAUA [Mat - hsa-mir-208a - Mod of JL - D42] (puzzle: Sensor for hsa-mir-208a)”: the “apparent KD of MS2 coat protein” value was 589 nM under setting [2], 17.9 nM under setting [3] and 734 nM under setting [4].
For “AGUCCAGAAUAAACUGGACAAAGACAUGUACAUGAGGAUCACCCAUGUCAUGUACAAGUUUUUUGCUCGUCUUAUAA (puzzle: Sensor for hsa-mir-208a)”, the “apparent KD of MS2 coat protein” value under setting [2] was 39.9 nM, the “apparent KD of MS2 coat protein” value under setting [3] turned out to be 10.4 nM and the “apparent KD of MS2 coat protein” value under setting [4] was 37.2 nM.
As to “AGUCCAGCAAGAGCUGGACAAAAGCAUGUACAUGAGGAUCACCCAUGUUCAUGUACAAGCUUUUUGCUCGUCUUAAA [Mat - hsa-mir-208a - Mod of JL - 57] (puzzle: Sensor for hsa-mir-208a)”, the “apparent KD of MS2 coat protein” value turned out to be 413 nM under setting [2], 16.5 nM under setting [3] and 659 nM under setting [4].
For “AGUCCAGCAUGAGCUGGACAAAAGCAUGUACAUGAGGAUCACCCAUGUUCAUGUACAAGCUUUUUGCAAGUCAAAAU [Mat - hsa-mir-208a - Mod of JL - 81] (puzzle: Sensor for hsa-mir-208a)” the same measures were 614 nM, 17.8 nM and 595 nM.
For “AGUCCAGCCUGAGCUGGACAAAAGCAUGUACAUGAGGAUCACCCAUGUCAUGUACAAGCUUUUUGCUCGUCUUAAAG [Mat - hsa-mir-208a - Mod of JL - D23] (puzzle: Sensor for hsa-mir-208a)” the same measures were 231 nM, 18 nM and 312 nM.
For the sequence “AGUCCAGCCUGAGCUGGACAAAAGCAUGUACAUGAGGAUCACCCAUGUCAUGUACAAGCUUUUUGCUCGUCUUAAUA [JL zipper 49] (Eterna round: R96, puzzle: Sensor for hsa-mir-208a)”, the “apparent KD of MS2 coat protein” value by setting is: (input ligand: FMN 200 uM) 600 nM; under setting [1], 16.2 nM; (input ligand: none) 471 nM.
As for “AGUCCAGCCUGAGCUGGACAAAAGCAUGUACAUGAGGAUCACCCAUGUCAUGUACAAGCUUUUUGCUCGUCUUAAUA [Mat - hsa-mir-208a - Mod of JL - D44] (puzzle: Sensor for hsa-mir-208a)”, the “apparent KD of MS2 coat protein” value under setting [2] was found to be 544 nM, the “apparent KD of MS2 coat protein” value under setting [3] turned out to be 15.3 nM and the “apparent KD of MS2 coat protein” value under setting [4] is 634 nM.
For “AGUCCAGCCUGAGCUGGACAAAAGCAUGUACAUGAGGAUCACCCAUGUCAUGUACAAGCUUUUUGCUCGUUUUAAUA [Zipper 49 - 14] (puzzle: Sensor for hsa-mir-208a)” the same measures were 509 nM, 14 nM and 679 nM.
For “AGUCCAGCCUGAGCUGGACAAAAGCAUGUACAUGAGGAUCACCCAUGUCAUGUAUAAGCUUUUUGCUCGUCUUAAAA [Zipper 46 - 10] (puzzle: Sensor for hsa-mir-208a)” the same measures were 18.9 nM, 9.63 nM and 20.1 nM.
On to “AGUCCAGCCUGAGCUGGACAAAAGCAUGUACAUGAGGAUCACCCAUGUUCAUGUACAAGCUUUUUGCUCGUCGGAAU [Mat - hsa-mir-208a - Mod of JL - 49] (Eterna round: R96, puzzle: Sensor for hsa-mir-208a)”, for which the “apparent KD of MS2 coat protein” value reads like this: (input ligand: FMN 200 uM) 668 nM; under setting [1], 16.6 nM; (input ligand: none) 654 nM.
On to “AGUCCAGCCUGAGCUGGACAAAAGCAUGUACAUGAGGAUCACCCAUGUUCAUGUACAAGCUUUUUGCUCGUCGGAAU [Mat - hsa-mir-208a - Mod of JL - 49] (puzzle: Sensor for hsa-mir-208a)”, for which the “apparent KD of MS2 coat protein” value runs as follows: under setting [2], 762 nM; under setting [3], 16.5 nM; under setting [4], 905 nM.
For “AGUCCAGCCUGAGCUGGACAAAAGCAUGUACAUGAGGAUCACCCAUGUUCAUGUACAAGCUUUUUGCUCGUCUAAAG [Mat - hsa-mir-208a - Mod of JL - 66] (puzzle: Sensor for hsa-mir-208a)” the same measures were 506 nM, 16.6 nM and 880 nM.
Turning to “AGUCCAGCCUGAGCUGGACAAAAGCAUGUACAUGAGGAUCACCCAUGUUCAUGUACAAGCUUUUUGCUCGUCUGAAU [Mat - hsa-mir-208a - Mod of JL - 47] (puzzle: Sensor for hsa-mir-208a)”, the “apparent KD of MS2 coat protein” value came to 709 nM under setting [2], 19.9 nM under setting [3] and 874 nM under setting [4].
For “AGUCCAGCCUGAGCUGGACAAAAGCAUGUACAUGAGGAUCACCCAUGUUCAUGUACAAGCUUUUUGCUCGUCUUGCG [salish99_208a_r3_106x] (puzzle: Sensor for hsa-mir-208a)”, the “apparent KD of MS2 coat protein” value reads like this: under setting [2], 641 nM; under setting [3], 17.3 nM; under setting [4], 867 nM.
On the same counts, the results for “AGUCCAGCCUGAGCUGGACAAAAGCAUGUACAUGAGGAUCACCCAUGUUCGUGUACAAGCUUUUUGCUCGUCUUAAA [Zipper 52 - 5] (puzzle: Sensor for hsa-mir-208a)” are 518 nM, 13.5 nM and 725 nM.
As to “AGUCCAGCCUGAGCUGGACAAGAGCAUGUACAUGAGGAUCACCCAUGUCAUGUACAAGCUUUUUGCUCGUCUUAAAA [Zipper 46 - 2] (puzzle: Sensor for hsa-mir-208a)”, the “apparent KD of MS2 coat protein” value is, setting by setting: under setting [2], 493 nM; under setting [3], 14.3 nM; under setting [4], 478 nM.
In the case of “AUAAAACAUGAGGAUCACCCAUGUCAACAAAGUCGAGGAUAUGGGCAAAGAAAAUAAGAACCAGAAGGCGAAUAAU [salish99_ss1_r3_056] (Eterna round: R96, puzzle: Same State 1)”, the “apparent KD of MS2 coat protein” value under setting [1] was 245 nM.
